Target: polyclonal antibodies (lot RF29), raised in rabbits against natural isolate of UK114
Assay: competition ELISA: soluble antigen titrated against rabbit antiserum (1:10,000) on plates coated with natural UK114; apparent Ka is the reciprocal of the antigen concentration at the A50 point

B1: recombinant UK114 (E.coli-derived, SEQ ID NO:1) (protein)
chain: SSLVRRIISTAKAPAAIGPYSQAVLVDRTIYISGQLGMDPASGQLVPGGVVEEAKQALTNIGEILKAAGCDFTNVVKATVLLADINDFSAVNDVYKQYFQSSFPARAAYQVAALPKGGRVEIEAIAVQGPLTTASV
Binder B1 has a Ka of 4.9e+08 M⁻¹.
